This note sets out measurements from US20140017269A1 (CHILDREN S HOSPITAL MEDICAL CENTER, published 2014).

This data set deals with the molecule itself. Briefly: method not given; self-association.

B1: NoV P^--M2e protein (other)
chain: SRTKPFTVPILTVEEMSNSRFPIPLEKLYTGPSSAFVVQPQNGRCTTDGVLLGTTQLSAVNICTFRGDVTHIAGSHDYIMNLASQNWNNYDPTEEIPAPLGTPDFVGKIQGMLTQTTREDGSTRAHKATVSTGTVHFTPKLGSVQYTTSSLLTEVETPIRNEWGCRCNDSSDIDILQTGQNTKFTPVGVIQDGNNHQNEPQQWVLPNYSGRTGHNVHLAPAVAPTFPGEQLLFFRSTMPGCSGYPNMNLDCLLPQEWVQHFYQEAAPAQSDVALLRFVNPDTGRVLFECKLHKSGYVTVAHTGPHDLVIPPNGYFRFDSWVNQFYTLAPMGNGAGR
notes: also called NoV P^--M2e dimer
As to B1, the binding result was “binds”.
